Test results published in PMC7422855.

Target: human n-Glyceraldehyde-3-phosphate dehydrogenase (human) (UniProt P04406)
Experiment: SEC-MALS; Superdex S200 10/300 in 20 mM HEPES pH 7.5, 100 mM NaCl, 1 mM TCEP; 18-angle MALS detector with differential refractive index detector

stoichiometry N: 4
Substance: human n-Glyceraldehyde-3-phosphate dehydrogenase, P04406 1-335 (enzyme; Cys152 partially oxidised to cysteine S-sulfonic acid (average occupancy 0.31±0.17 over 20 copies in crystal forms A, C and D; not significant in crystal form B); Cys152 partially oxidised to cysteine S-sulfonic acid (average occupancy 0.31±0.17 over 20 copies in crystal forms A, C and D; not significant in crystal form B); other documents disagree on this pair)
